Test results published in US20140005098A1 (INSERM INSTITUT NATIONAL DE LA SANT ET DE LA RECHERCHE M …, published 2014).

Biological target: T1, IGF-II (UniProt P01344 25-91)
T1 construct: also called biotinylated IGF-II (tracer form)
Assay: solid-phase displacement of biotinylated IGF-II tracer (Example 5, to which the sentence points); reference: unfused mini-IGFBP-3
Description: A solid-phase assay was used to study the binding affinity of mini-IGFBP-3-Fc for IGF-II. In this assay, two binding proteins (mini-IGFBP-3 and mini-IGFBP-3-Fc) were immobilized to a support. They were incubated with the biotinylated IGF-II tracer, and then increasing concentrations of IGF-II were added.

T1 sequence (P01344 25-91 limits assumed): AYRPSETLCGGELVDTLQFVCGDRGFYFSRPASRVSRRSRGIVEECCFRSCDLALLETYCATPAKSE

B1: mini-IGFBP-3-Fc (mini-IGFBP-3-FcIgG1 fusion protein, immunoadhesin) (Fc fusion, human)
chain: GASSAGLGPVVRCEPCDARALAQCAPPPAVCAELVREPGCGCCLTCALSEGQPCGIYTERCGSGLRCQPSPDEARPLQALLDGRGLCVNASAVSGGGSGGSGGSGGSGGETEYGPCRREMEDTLNHLKFLNVLSPRGVHIPNCDKKGFYKKKQCRPSKGRKRGFCWCVDKYGQPLPGYTTKGKEDVHCYSMQSK
notes: range 1-94;range 180-264; also called mini-IGFBP-3 immunoadhesin; not shown: Fc fragment of human IgG1 from the pYM-Fc-IgG1 vector
fold apparent affinity (IC50) against IGFBP-3 derivatives not fused to IgG1 Fc: 7 fold
